Measured values: publication PMC7966918

Biological target: SARS-CoV-2 RBD (residues Arg319–Phe541) (SARS-CoV-2) (UniProt P0DTC2)

| Binder | SARS-CoV-2 pseudovirus neutralisation (luciferase, Huh7), IC50, Fab | SARS-CoV-2 pseudovirus neutralisation (luciferase, Huh7), IC80, Fab | other |
| --- | --- | --- | --- |
| P5A-2G7 (Fab) (Fab, V domains shown) VH: QVQLQESGPGLVKPSETLSLTCTVSGDSVSSGSYYWSWIRQPPGKGLEWIGYIYYSGSTNYNPSLKSRVTISVDTSKNQFSLKLSSVTAADTAVYYCARERCYYGSGRAPRCVWFDPWGQGTLVTVSS VL: QSALTQPASVSGSPGQSITISCTGTSSDVGGYNYVSWYQQHPGKAPKLMIYDVSNRPSGVSNRFSGSKSGNTASLTISGLQAEDEADYYCSSYTSSSTLVVFGGGTKLTVL | 195 nM | 1020 nM | 15.5% |
| P5A-1B8 (Fab) (Fab, V domains shown) VH: EVQLVESGGGLIQPGGSLRLSCAASGFTVSSNYMSWVRQAPGKGLEWVSVIYPGGSTFYADSVKGRFTISRDNSKNTLYLQMNSLRAEDTAVYYCARETLAFDYWGQGTLVTVSS VL: DIQLTQSPSFLSASVGDRVTITCRASQGISSYLAWYQQKPGKAPKLLIYAASTLQSGVPSRFSGSGSGTEFTLTISSLQPEDFATYYCQQLNSYPPAFGGGTKVEIK | 36.2 nM | 174 nM | 25.1% |
